Assays:
[1] = biological target: OrfL (OB-fold protein encoded by ICESt3 of Streptococcus thermophilus), purified, untagged (Streptococcus thermophilus (ICESt3)); experiment: SEC-MALS; isolated OrfM or OrfL at 30 µM; Superdex 200 Increase 10/300 GL; 20 mM Tris-HCl pH 7.5, 150 mM NaCl; monomer and dimer
[2] = biological target: OrfL (OB-fold protein encoded by ICESt3 of Streptococcus thermophilus), purified, untagged (Streptococcus thermophilus (ICESt3)); experiment: ITC; OrfM at 280 µM injected into OrfL at 28 µM; 298 K; 20 mM Tris-HCl pH 7.5, 300 mM NaCl; single binding site model
[3] = biological target: OrfL (OB-fold protein encoded by ICESt3 of Streptococcus thermophilus), purified, untagged (Streptococcus thermophilus (ICESt3)); experiment: SEC-MALS; OrfL and OrfM mixed at 1:1 and 2:1 OrfL:OrfM molar ratios; Superdex 200 Increase 10/300 GL; 20 mM Tris-HCl pH 7.5, 150 mM NaCl
[4] = biological target: OrfM (OB-fold protein encoded by ICESt3 of Streptococcus thermophilus), purified, untagged (Streptococcus thermophilus (ICESt3)); experiment: SEC-MALS; isolated OrfM or OrfL at 30 µM; Superdex 200 Increase 10/300 GL; 20 mM Tris-HCl pH 7.5, 150 mM NaCl; monomer and dimer
[5] = biological target: OrfL (OB-fold protein encoded by ICESt3 of Streptococcus thermophilus), purified, untagged (Streptococcus thermophilus (ICESt3)); experiment: switchSENSE (fluorescence proximity sensing); OrfL covalently coupled to a 48-mer DNA nanolever on the chip; OrfM injected at 0.625 to 10 µM; PE40 buffer (10 mM NaP pH 7.4, 40 mM NaCl, 0.05% Tween 20); 25°C

Row | stoichiometry N [1] | Ka [2] [M⁻¹] | Kd [2] [nM] | dH [2] [kcal/mol] | stoichiometry N [2] | fraction of the sample found as the complex (1:1 ratio) [3] [%] | stoichiometry N [3] | fraction of the injected protein found as dimer [4] [%] | stoichiometry N [4] | Kd [5] [nM] | koff [5] [s⁻¹] | kon [5] [M⁻¹ s⁻¹] | Substance
1 | 2 | – | – | – | – | – | – | – | – | – | – | – | OrfL (OB-fold protein encoded by ICESt3 of Streptococcus thermophilus), purified, untagged (natural protein)
2 | – | 7.1e+06 | 140 | -35.9 | 0.87 | 92 | 1 | 5 | 2 | 311 | 0.019 | 62000 | OrfM (OB-fold protein encoded by ICESt3 of Streptococcus thermophilus), purified, untagged (natural protein)

— PMC12614216
